In the nanobody polyreactivity screen of Harvey et al. (2022):

Assay: yeast display, Sf9 membrane polyspecificity reagent, FACS + sequencing; frameworks hold sequencing errors
Procedure, shortened: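 Nanobodies came from a synthetic yeast display library in Saccharomyces cerevisiae BJ5465, induced with galactose for 36–48 hours and stained for 1 hour at 4 °C with 10% biotinylated, detergent-solubilized Sf9 membrane reagent. Cells were enriched on streptavidin microbeads and then FACS-sorted, with low and high (top ~1%) gates set on anti-HA fluorescence for expression and streptavidin fluorescence for reagent binding. Each polyreactivity label reflects the gate a clone came from. Genes were amplified by colony PCR, sequenced by MiSeq 2 × 250 and filtered by CDR length.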

Row | Sequence | polyreactivity (PSR sort gate)
1 | QVQLVESGGGLVQAGGSLRLSCAASGFIFSFYAMGWYRQAPGKERELVAAITSSGATTYYADSVKGRFTISRDNAKNTVYLQMNSLKPEDTAVYYCNAVYRRDTGYYRYYYWGQGTQVTVSS | high polyreactivity
2 | QVQLVESGGGLVQAGGSLRLSCAASGSILYVYAMGWYRQAPGKERELVAVITSGGSTNYADSVKGRFTISRDNAKNTVYLQMNSLKPEDTAVYYCAADPYSVYGGDYWGQGTQVTLSS | low polyreactivity
3 | QVQLVESAGGLVQEGGSLRLICAASGSIFGGYAMGWYRQAPGKERELVAAISWSSSTTYYADSVKGRFTISRDHAMNTVYLQLNSLKPEDTAVYDCATGIYPQTSDYDYWGQGTQVTVSS | low polyreactivity
4 | QVQLVESGGGLVQAGASLRVSCAASGSTFNYNAMGWYRQAPGKERELVAAITYSGSSTYYSDSVKGRFTISRDNAKNTVYLQMNSLKPEYTAVYYCAADYWFRYGTYEYWGQGTQVSVSS | high polyreactivity
5 | QVHIVESGGGLVQAGGSLRLSCGASGFTFIYAMGWYRQAHAKEREMVAAITRSGGSTYYADSVKGRFTISRDNAKNTVYSQMNILKPEDTAFYYCAARLRYQGRGYRYWGQGTQVTVSS | high polyreactivity
6 | QLQLQESGGGLVLAGGSLRLSCSASGNISVYGSMCWYRQAPGKEREFVATIDPGTNTNYADSVKDRFTISRDNAKNTVYLQMNSLKPEDTAVSYCAVEAGSDWPYRYRGQGTQVTVSS | low polyreactivity
7 | QVQLVESGGGLVQAGGSLRLSCADSGSIFLRYAMGWYRQAPGKERELVAAISCRGGSTYYADSVKGRFTISRDNAKNTVYLQMNSQKPEDTAVYYCAAYRGRSLEYDYWGQGTQVNVSS | high polyreactivity
8 | QVQLVESGGGLVQAGGSLRLSCAASGSTFRRNAMGGYRQAPGKERELVAAITSTDSTYYADSVKGRFTISRDNAKNSVYLQMNSLKPEDTAVYYCAKGYWWGGEMGYWGQGTQVTVSS | low polyreactivity
9 | QVQLVESGGGLVQAGGSLRLSCAASGFTFGANDMGRYIQAPGKERELVATISSSGGTTYYADSVKGRFTISRDNAKYTVYLQMNSLKPEDTAVYYCAAKGLFTGRVSRYADDHWGQGTEVTVSS | low polyreactivity
10 | QVQLVESGGGLVQAGGSHRLSCAASGYTFARNAMGCDRQAPGKDRELVAAINWSGTNTYYADSVKGRFTISRDSAMNTVYLQMNSLKPEDTAVYYCAKDLYFSGYEFDYWGQGTQVTVSS | low polyreactivity
11 | QVQLVESGGGLVQAGGSLRLSCAASGSIFPHYAMGWYRQAPGKERELVAAISSGTSTNYADSVKGRFTISRDNAKNTVYLQMNSLKPEDTAVYYCAADIGVYGERREEEFDYWGQGTQVTVSS | low polyreactivity
12 | QLQLVESRGGLVQAGGSLRLSCASSGFIFKQNAMGWYRQAPGNERELVAAISVSGGSTYYADSVKGRFTISRDNAKNTVYLQMNSLKPEYSAVYYCNTRDRGDVVTGLDYWGQGTQVTVSS | low polyreactivity
13 | QVQLVESGGGLVQAGGSLRLSCAASGSTFGDYAMGWYRQAPGKERELVAAISRSAGSTYYADSVKGRFTISRDNAKNTVYLQMNSLKPEDTAVYYCAAEYQYHWAYIYYYWGQGTQVTVSS | high polyreactivity
14 | QVQLVESGGGLVQAGGSLRLSCAASGITFLDYTMGWYRQAPGKERELVATISKSGGSTYYADSVKGRFTISRDNAKNTVYLQMNSLKPEDTAVYYFAARGFSFWRYYYWGQGTQVTVSS | high polyreactivity
15 | QVQLVESGGGLVQAGGSLRLSCAASGSTISYYAMGWYRQAPGKERELVAGISGSTGTTYYADSVKGRFTISRDNAKNTVYLQMNSLKPEDTAVYYCAKLFPVARPQYGYWGQGTQVTVSS | low polyreactivity
16 | QVQLVESGGGLVQAGGSLRLSCAASGFFFAGYAMGWYRQAPGKERELVAAISSGGGSTYYADSVKGRFTISRDNAKNTVYLQMNSLKPEDTAVYYCAARRLYPPGYYYWGQGTQVTVSS | high polyreactivity
17 | QVQLGESGGGLVQAGGSLRLSCAASGSIFGYYAMGWYRQAPGKERELVAAINYSGVSTYYADSVKGRFTISRDNAKNTVYLQMNSLKPEDTAVYYCAALRLYEPGPYGGPLRYGYWGQGTQVTVSS | high polyreactivity
18 | QVQLVDSGGGLVQAGGSLRLSCAASGFIDALDAMGWYRQAPGKERELVAAISYSGGSTYYADSVKGRFTISRDNAKNTVYLQMNSLKPEDTAVYYCAVYYRSAFYYWGQGTQVTVSS | high polyreactivity
19 | QVQLVESGGGLVLAGGSLRLSCAASGSTFGRYAMGWSRQAPGKERELVAAISRGTTTNYADSVKGRFTIARDNAKNTVYLQMNSLKPEETAVYYCAADQPSKRYYYWGQGTQVTVSS | low polyreactivity
20 | QVQLVESGGGLVQAGGSLRLSCAASGFTFSENTMGWYRQAPGKERELVADIDSGGSTYYADSVKGRFTISRDNAKNTVYLQMNSLKPEVTAVYYCAIDYHVVGGQTFLFEYDYWGQGTQVTVSS | low polyreactivity
21 | QVQLVESGGGLVQAGGSLRLSCAASGSIFDVYAMGWYRQAPGKERELVAGISRSGGSTYYADSVKGRFTISRDNAKNTVYLQMNSLKPEDTAVYYCAARYTYYRGRYDYWGQGTQVTVSS | low polyreactivity
22 | QVQLVETGGGLVQAGGSLRLSCAASGIIFYGYAMGWYRQAPGKERELVAAITYSGGSTYYADSVKGRFTISRDNAKNTVYLQMNSLKPEDTAVYYCRYDIWVWWSGAYDYWGQGTQVTVSS | low polyreactivity
